Like-named read-outs stand apart in the source and are kept apart here.
T1: recombinant monkey TfR (r monkey TfR: Sino Biological Inc.), crab-eating monkey TfR extracellular region with … (crab-eating monkey (Macaca fascicularis))
T1 construct: Bought from Sino Biological; also called r monkey TfR-ECD (Histag); not shown: histidine tag at the N-terminus
T1 chain: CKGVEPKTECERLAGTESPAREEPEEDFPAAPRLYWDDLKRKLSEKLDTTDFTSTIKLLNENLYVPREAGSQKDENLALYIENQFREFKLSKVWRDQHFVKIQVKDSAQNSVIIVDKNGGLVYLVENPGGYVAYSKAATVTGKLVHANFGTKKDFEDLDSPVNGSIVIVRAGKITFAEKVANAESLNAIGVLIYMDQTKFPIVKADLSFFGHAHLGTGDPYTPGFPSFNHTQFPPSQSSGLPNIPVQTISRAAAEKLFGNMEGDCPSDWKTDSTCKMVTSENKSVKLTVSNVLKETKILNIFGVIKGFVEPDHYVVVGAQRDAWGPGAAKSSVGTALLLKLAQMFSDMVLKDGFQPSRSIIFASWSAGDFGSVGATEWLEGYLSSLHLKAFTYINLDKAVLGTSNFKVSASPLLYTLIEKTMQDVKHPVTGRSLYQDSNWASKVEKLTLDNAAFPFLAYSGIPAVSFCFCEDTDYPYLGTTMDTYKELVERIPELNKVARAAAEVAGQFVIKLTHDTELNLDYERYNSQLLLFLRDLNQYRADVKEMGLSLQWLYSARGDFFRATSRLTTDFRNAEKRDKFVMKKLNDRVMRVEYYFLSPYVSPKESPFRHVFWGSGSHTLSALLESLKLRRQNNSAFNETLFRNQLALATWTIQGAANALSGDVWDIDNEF


Experiments:
Assay in all cases: BLI (Octet RED96), His-tagged TfR ECD on Ni-NTA sensor
[1] = target: T1, recombinant monkey TfR (r monkey TfR: …)
Method: (§1) Each of the sample solutions prepared above by 2-fold dilution steps was added, 200 μL/well, to a 96-well plate, black (Greiner Bio-One Inc.). Each of the r human TfR-ECD (Histag) solution and the r monkey TfR-ECD (Histag) solutions prepared above was added, 200 μL/well, to predetermined wells. To respective wells for baseline, dissociation and washing were added HBS-P+, 200 μL/well. To wells for regeneration were added 10 mM Glycine-HCl (pH 1.7), 200 μL/well. To wells for activation was added 0.5 mM NiCl₂ solution, 200 μL/well. The plate and biosensor (Biosensor/Ni-NTA: ForteBio Inc., a division of Pall Corporation) were set in the prescribed positions of Octet RED96.
(§2) The measurement was performed at 25 to 30° C.
(§3) The affinity of humanized anti-hTfR antibody No. 3 obtained in Example 13 and humanized anti-hTfR antibody No. 3N obtained in Example 17 to human TfR and monkey TfR was measured by the method described in Example 7. […] Besides, the measurement indicating the affinity of humanized anti-hTfR antibody No. 3 to monkey TfR differed from that shown in Table 7, but is an experimental error.

[2] = target: T1, recombinant monkey TfR (r monkey TfR: …)
Method: as §1, §2
(§4) The affinity of the humanized anti-hTfR antibodies obtained in Example 13 to human and monkey TfRs was measured by the method described in Example 7.

[3] = target: T2, recombinant human TfR (r human TfR: Sino Biological Inc.), hTfR extracellular region with a histidine tag at … (human, UniProt P02786 89-760)
T2 construct: Bought from Sino Biological; also called r human TfR-ECD (Histag); recombinant hTfR; not shown: histidine tag at the N-terminus
Method: as §1, §2, §4

[4] = target: T2, recombinant human TfR (r human TfR: …); remark: listed apart in the source
Method: as §1, §2
as §3, with “[…]” for “monkey”, “6,” for “7,”

[5] = target: T1, recombinant monkey TfR (r monkey TfR: …)
[6] = target: T2, recombinant human TfR (r human TfR: …); remark: listed apart in the source

Binder	Kd [1]	koff [1]	kon [1]	Kd [2]	koff [2]	kon [2]	Kd [3]	koff [3]	kon [3]	Kd [4]	koff [4]	kon [4]	Kd [5]	koff [5]	kon [5]	Kd [6]	koff [6]	kon [6]
humanized anti-hTfR antibody No. 3 (antibody, human IgG1, kappa, IgG1; Expressed from pE-hygr(LC3) and pE-neo(HC3) in CHO cells; also called Humanized anti-hTfR antibody 3) light: DIVMTQTPLSLSVTPGQPASISCRSSQSLVHSNGNTYLHWYLQKPGQSPQLLIYKVSNRFSGVPDRFSGSGSGTDFTLKISRVEAEDVGVYYCSQSTHVPWTFGQGTKVEIKRTVAAPSVFIFPPSDEQLKSGTASVVCLLNNFYPREAKVQWKVDNALQSGNSQESVTEQDSKDSTYSLSSTLTLSKADYEKHKVYACEVTHQGLSSPVTKSFNRGEC heavy: not shown	1320 pM	0.000806 s⁻¹	609000 M⁻¹ s⁻¹	1120 pM	0.000676 s⁻¹	603000 M⁻¹ s⁻¹	< 1 pM	< 1e-07 s⁻¹	1.19e+06 M⁻¹ s⁻¹	< 1 pM	< 1e-07 s⁻¹	847000 M⁻¹ s⁻¹	–	–	–	–	–	–
Fab GS3-LAMAN (other, also called Fab HC-GS3-LAMAN) light: DIVMTQTPLSLSVTPGQPASISCRSSQSLVHSNGNTYLHWYLQKPGQSPQLLIYKVSNRFSGVPDRFSGSGSGTDFTLKISRVEAEDVGVYYCSQSTHVPWTFGQGTKVEIKRTVAAPSVFIFPPSDEQLKSGTASVVCLLNNFYPREAKVQWKVDNALQSGNSQESVTEQDSKDSTYSLSSTLTLSKADYEKHKVYACEVTHQGLSSPVTKSFNRGEC heavy: EVQLVQSGAEVKKPGESLKISCKGSGYSFMNYWLGWVRQMPGKGLEWMGDIYPGGDYPTYSEKFKVQVTISADKSISTAYLQLSSLKASDTAMYYCARSGNYDEVAYWGQGTLVTVSSASTKGPSVFPLAPSSKSTSGGTAALGCLVKDYFPEPVTVSWNSGALTSGVHTFPAVLQSSGLYSLSSVVTVPSSSLGTQTYICNVNHKPSNTKVDKKVEPKSCDKTHTGGGGSGGGGSGGGGSGGYETCPTVQPNMLNVHLLPHTHDDVGWLKTVDQYFYGIKNDIQHAGVQYILDSVISALLADPTRRFIYVEIAFFSRWWHQQTNATQEVVRDLVRQGRLEFANGGWVMNDEAATHYGAIVDQMTLGLRFLEDTFGNDGRPRVAWHIDPFGHSREQASLFAQMGFDGFFFGRLDYQDKWVRMQKLEMEQVWRASTSLKPPTADLFTGVLPNGYNPPRNLCWDVLCVDQPLVEDPRSPEYNAKELVDYFLNVATAQGRYYRTNHTVMTMGSDFQYENANMWFKNLDKLIRLVNAQQAKGSSVHVLYSTPACYLWELNKANLTWSVKHDDFFPYADGPHQFWTGYFSSRPALKRYERLSYNFLQVCNQLEALVGLAANVGPYGSGDSAPLNEAMAVLQHHDAVSGTSRQHVANDYARQLAAGWGPCEVLLSNALARLRGFKDHFTFCQQLNISICPLSQTAARFQVIVYNPLGRKVNWMVRLPVSEGVFVVKDPNGRTVPSDVVIFPSSDSQAHPPELLFSASLPALGFSTYSVAQVPRWKPQARAPQPIPRRSWSPALTIENEHIRATFDPDTGLLMEIMNMNQQLLLPVRQTFFWYNASIGDNESDQASGAYIFRPNQQKPLPVSRWAQIHLVKTPLVQEVHQNFSAWCSQVVRLYPGQRHLELEWSVGPIPVGDTWGKEVISRFDTPLETKGRFYTDSNGREILERRRDYRPTWKLNQTEPVAGNYYPVNTRIYITDGNMQLTVLTDRSQGGSSLRDGSLELMVHRRLLKDDGRGVSEPLMENGSGAWVRGRHLVLLDTAQAAAAGHRLLAEQEVLAPQVVLAPGGGAAYNLGAPPRTQFSGLRRDLPPSVHLLTLASWGPEMVLLRLEHQFAVGEDSGRNLSAPVTLNLRDLFSTFTITRLQETTLVANQLREAASRLKWTTNTGPTPHQTPYQLDPANITLEPMEIRTFLASVQWKEVDG	–	–	–	–	–	–	–	–	–	–	–	–	< 1 pM	< 1e-07 s⁻¹	357000 M⁻¹ s⁻¹	< 1 pM	< 1e-07 s⁻¹	729000 M⁻¹ s⁻¹

Now from value to binder:

Kd [1]	koff [1]	kon [1]	Kd [2]	koff [2]	kon [2]	Kd [3]	koff [3]	kon [3]	Kd [4]	koff [4]	kon [4]	Kd [5]	koff [5]	kon [5]	Kd [6]	koff [6]	kon [6]	Binder
–	–	–	–	–	–	–	–	–	–	–	–	323 pM	4.88e-05 s⁻¹	151000 M⁻¹ s⁻¹	< 1 pM	< 1e-07 s⁻¹	282000 M⁻¹ s⁻¹	Fab GS3-FUCA1 (other, also called Fab HC-GS3-FUCA1) light: DIVMTQTPLSLSVTPGQPASISCRSSQSLVHSNGNTYLHWYLQKPGQSPQLLIYKVSNRFSGVPDRFSGSGSGTDFTLKISRVEAEDVGVYYCSQSTHVPWTFGQGTKVEIKRTVAAPSVFIFPPSDEQLKSGTASVVCLLNNFYPREAKVQWKVDNALQSGNSQESVTEQDSKDSTYSLSSTLTLSKADYEKHKVYACEVTHQGLSSPVTKSFNRGEC heavy: EVQLVQSGAEVKKPGESLKISCKGSGYSFMNYWLGWVRQMPGKGLEWMGDIYPGGDYPTYSEKFKVQVTISADKSISTAYLQLSSLKASDTAMYYCARSGNYDEVAYWGQGTLVTVSSASTKGPSVFPLAPSSKSTSGGTAALGCLVKDYFPEPVTVSWNSGALTSGVHTFPAVLQSSGLYSLSSVVTVPSSSLGTQTYICNVNHKPSNTKVDKKVEPKSCDKTHTGGGGSGGGGSGGGGSQPPRRYTPDWPSLDSRPLPAWFDEAKFGVFIHWGVFSVPAWGSEWFWWHWQGEGRPQYQRFMRDNYPPGFSYADFGPQFTARFFHPEEWADLFQAAGAKYVVLTTKHHEGFTNWPSPVSWNWNSKDVGPHRDLVGELGTALRKRNIRYGLYHSLLEWFHPLYLLDKKNGFKTQHFVSAKTMPELYDLVNSYKPDLIWSDGEWECPDTYWNSTNFLSWLYNDSPVKDEVVVNDRWGQNCSCHHGGYYNCEDKFKPQSLPDHKWEMCTSIDKFSWGYRRDMALSDVTEESEIISELVQTVSLGGNYLLNIGPTKDGLIVPIFQERLLAVGKWLSINGEAIYASKPWRVQWEKNTTSVWYTSKGSAVYAIFLHWPENGVLNLESPITTSTTKITMLGIQGDLKWSTDPDKGLFISLPQLPPSAVPAEFAWTIKLTGVK
–	–	–	1910 pM	0.000932 s⁻¹	488000 M⁻¹ s⁻¹	20.9 pM	1.25e-05 s⁻¹	600000 M⁻¹ s⁻¹	–	–	–	–	–	–	–	–	–	humanized anti-hTfR antibody No. 3-3 (antibody, human IgG1, kappa, IgG1) light: DIVMTQTPLSLPVTPGEPASISCRSSQSLVHSNGNTYLHWYLQKPGQSPQLLIYKVSNRFSGVPDRFSGSGSGTDFTLKISRVEAEDVGVYYCSQSTHVPWTFGQGTRLEIKRTVAAPSVFIFPPSDEQLKSGTASVVCLLNNFYPREAKVQWKVDNALQSGNSQESVTEQDSKDSTYSLSSTLTLSKADYEKHKVYACEVTHQGLSSPVTKSFNRGEC heavy: not shown
–	–	–	1770 pM	0.000876 s⁻¹	495000 M⁻¹ s⁻¹	23.9 pM	1.45e-05 s⁻¹	606000 M⁻¹ s⁻¹	–	–	–	–	–	–	–	–	–	humanized anti-hTfR antibody No. 3-2 (antibody, human IgG1, kappa, IgG1) light: DIVMTQSPLSLPVTPGEPASISCRSSQSLVHSNGNTYLHWYLQKPGQSPQLLIYKVSNRFSGVPDRFSGSGSGTDFTLKISRVEAEDVGVYYCSQSTHVPWTFGQGTKVEIKRTVAAPSVFIFPPSDEQLKSGTASVVCLLNNFYPREAKVQWKVDNALQSGNSQESVTEQDSKDSTYSLSSTLTLSKADYEKHKVYACEVTHQGLSSPVTKSFNRGEC heavy: not shown
–	–	–	260 pM	0.000135 s⁻¹	519000 M⁻¹ s⁻¹	< 1 pM	< 1e-07 s⁻¹	1.01e+06 M⁻¹ s⁻¹	–	–	–	–	–	–	–	–	–	humanized anti-hTfR antibody No. 3-4 (antibody, human IgG1, kappa, V domains shown, IgG1) VH: EVQLVQSGAEVKKPGESLKISCKGSGYSFTNYWLGWVRQMPGKGLEWMGDIYPGGDYPTYSEKFKVQVTISADKSISTAYLQWSSLKASDTAMYYCARSGNYDEVAYWGQGTLVTVSS VL: DIVMTQTPLSLSVTPGQPASISCRSSQSLVHSNGNTYLHWYLQKPGQSPQLLIYKVSNRFSGVPDRFSGSGSGTDFTLKISRVEAEDVGVFFCSQSTHVPWTFGQGTKVEIKR

From US20250026846A1 (JCR PHARMACEUTICALS, published 2025)
